According to article PMC12455940:

Target: leader of the capsid (LC) protein from Feline calicivirus (Feline calicivirus, Urbana strain)
Experiment: non-reducing SDS-PAGE and western blot; total protein extracts (RIPA) of FCV-infected CrFK cells, MOI of 5, 1 to 9 hpi; Laemmli buffer without β-ME; detected with anti-LC serum; also cells untreated or treated with 5 µM 16F16

leader of the capsid (LC) protein from Feline calicivirus (natural protein)
stoichiometry N: 2
